The chains are these.
B1: CD95L-IZ-His (His8-TEV-Cys-IZ-CD95L (137-281), secreted form) (ligand)
chain: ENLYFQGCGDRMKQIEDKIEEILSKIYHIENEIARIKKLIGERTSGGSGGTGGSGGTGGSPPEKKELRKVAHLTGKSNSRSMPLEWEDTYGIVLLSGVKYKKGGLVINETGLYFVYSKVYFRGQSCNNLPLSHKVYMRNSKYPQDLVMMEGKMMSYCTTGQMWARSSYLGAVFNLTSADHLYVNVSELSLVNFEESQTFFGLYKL
modifications: glycosylated (the paper suggests three to five N-glycans)
notes: TEV protease site ENLYFQ, extra cysteine, isoleucine zipper (IZ, variant of the GCN4 leucine zipper) and linker; CD95 ligand (CD95L, Fas ligand, CD178, TNFSF6), human, extracellular domain, amino acids 137-281; The natural CD95L part is fused to a designed trimerisation motif; also called CD95L-IZ with His-tag; CD95-IZ-His; source: HEK293T, transient transfection (PEI), secreted into the medium; …
B2: CD95L-IZ-biotin (CD95L-IZ after His-tag cleavage, biotinylated at the extra cysteine) (ligand)
chain: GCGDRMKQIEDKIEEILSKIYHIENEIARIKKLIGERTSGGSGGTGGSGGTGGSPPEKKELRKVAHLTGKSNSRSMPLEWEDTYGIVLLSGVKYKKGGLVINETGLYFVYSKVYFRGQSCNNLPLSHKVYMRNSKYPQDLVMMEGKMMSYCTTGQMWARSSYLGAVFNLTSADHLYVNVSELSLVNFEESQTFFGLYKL
modifications: biotin (biotin-C5-maleimide) on the extra cysteine; glycosylated
notes: What is left after TEV cleavage: Gly, extra cysteine, isoleucine zipper (IZ) and linker; CD95 ligand (CD95L, Fas ligand, CD178, TNFSF6), human, extracellular domain, amino acids 137-281; also called CD95L-IZ-X; source: HEK293T, transient transfection, secreted; purified (anti-His-tag antibody agarose beads), His-tag cut with TEV protease, labelled with biotin-C5-maleimide; not shown: His8, …
B3: CD95-His receptor protein (Sino Biological) (receptor, UniProt P25445 26-173, looked up)
chain: QVTDINSKGLELRKTVTTVETQNLEGLHHDGQFCHKPCPPGERKARDCTVNGDEPDCVPCQEGKEYTDKAHFSSKCRRCRLCDEGHGLEVEINCTRTQNTKCRCKPNFFCNSTVCEHCDPCTKCEHGIIKECTLTSNTKCKEEGSRSN
notes: CD95 (Fas, Apo-1) receptor protein with His-tag; also called Fas; Apo-1; source: bought: Sino Biological

Data set [1] concerns the molecule itself. Put plainly: SEC; Superdex 75 10/300 GL, PBS pH 7.4, 0.3 ml/min; 350 µl CD95L-IZ-His at 0.409 mg/ml; protein standard mix for sizes; curve fitted with three Gaussians.
Data set [2] concerns the target B3. Put plainly: ELISA; CD95-His coated at 2 µg/ml in PBS overnight at 4 °C; ligand 0.1-100 nM in 0.5 % BSA/PBST, 2 h at r.t.; detected with anti-CD95L antibody and HRP secondary; 4-parameter logistic fit. The conditions noted are these: both partners purified.
The target of data set [3] is T1, soluble CD95L (Enzo Life Sciences) (UniProt P48023 130-281).
T1 construct: soluble CD95 ligand (CD95L, Fas ligand); The conclusion calls it the unmodified CD95L; also called sCD95L; source: bought: Enzo Life Sciences
T1 sequence (looked up): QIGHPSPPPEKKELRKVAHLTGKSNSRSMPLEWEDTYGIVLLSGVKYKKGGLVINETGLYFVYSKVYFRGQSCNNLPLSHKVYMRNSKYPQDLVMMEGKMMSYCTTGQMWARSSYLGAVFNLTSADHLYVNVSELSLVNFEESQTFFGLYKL
Described as above. The conditions noted are these: both partners purified.

Several values for one entry are separate records, joined by “and”; a condition that tells them apart may be missing. Equal values may be shown once.

Take B1: in data set [1], the “stoichiometry N” value was 3 and 2. Consider B2, for which the Kd in data set [2] came to 0.68 nM. With B3, the Kd in data set [3] came to 11.3 nM.
